Data reported in patent US20260078171A1 (INVIVYD, published 2026).

Key:
[1] = target: T1, WT SARS-CoV-2 spike S1 subunit (SARS-CoV-2, UniProt P0DTC2 16-685); test: bio-layer interferometry (BLI, Octet), monovalent Fab affinity
[2] = target: SARS-CoV spike S1 subunit (SARS-CoV, UniProt P59594 14-667); test: BLI (Octet), Fab, monovalent
[3] = target: T1, WT SARS-CoV-2 spike S1 subunit; test: BLI (Octet), Fab, monovalent

| Binder | Kd [1] [nM] | Kd [2] [nM] | Kd [3] [nM] |
| --- | --- | --- | --- |
| ADI-58125 (Fab, V domains shown) VH: EVQLVESGGGLVKPGGSLRLSCAASGFTFSSYYMNWVRQAPGKGLEWVSSISEDGYSTYYPDSLKGRFTISRDSAKNSLYLQMNSLRADDTAVYYCARDFSGHTAWAGTGFEYWGQGTLVTVSS VL: QSVLTQPPSVSGAPGQRITISCTGSSSNIGAGYDVHWYQQLPGTAPKLLIYGSSSRNSGVPDRFSGSKSGTSASLAITGLQAEDEADYYCQSYDSSLSVLYTFGTGTKVTVLG | 0.6 | – | – |
| VYD222 Fab (Fab, V domains shown) VH: EVQLVESGGGLVKPGGSLRLSCAASGFTFGSYEMNWVRQAPGKGLEWVSSISEDGYSTYYPDSLKGRFTISRDSAKNSLYLQMNSLRADDTAVYYCARDFGGDTAWAGTGFTYWGQGTLVTVSS VL: QSVLTQPPSVSGAPGQRITISCTGSSSNIGAGYDVHWYQQLPGTAPKLLIYGSSSRNYGVPDRFSGSKSGTSASLAITGLQAEDEADYYCQSYDSDLGVLYTFGTGTKVTVL | – | 0.478 | 2.14 |
